Data: the PETadex activity labels (doi:10.1042/bj20021862)

Substrate: Acetylcholine
Settings: pH 7; 22 °C

Row | Protein | Km [µM] | kcat [s⁻¹] | kcat/Km [M⁻¹ s⁻¹]
1 | unnamed (protein) MRPPWYPLHTPSLAFPLLFLLLSLLGGGARAEGREDPQLLVRVRGGQLRGIRLKAPGGPVSAFLGIPFAEPPVGSRRFMPPEPKRPWSGVLDATTFQNVCYQYVDTLYPGFEGTEMWNPNRELSEDCLYLNVWTPYPRPASPTPVLIWIYGGGFYSGAASLDVYDGRFLAQVEGAVLVSMNYRVGTFGFLALPGSREAPGNVGLLDQRLALQWVQENIAAFGGDPMSVTLFGESAGAASVGMHILSLPSRSLFHRAVLQSGTPNGPWATVSAGEARRRATLLARLVGCPPGGAGGNDTELIACLRTRPAQDLVDHEWHVLPQESILRISFVPVVDGDFLSDTPEALINTGDFQDLQVLVGVVKDEGSAFLVYGVPGFSKDNESLISRAQFLAGVRIGVPQASDLAAEAVVLHYTDWLHPEDPTHLRDAMSAVVGDHNVVCPVAQLAGRLAAQGARVYAYIFEHRASTLTWPLWMGVPHGYEIEFIFGLPLDPSLNYTTEERIFAQRLMKYWTNFARTGDPNDPRDSKSPQWPPYTTAAQQYVSLNLKPLEVRRGLRAQTCAFWNRFLPKLLSATDTLDEAERQWKAEFHRWSSYMVHWKNQFDHYSKQERCSDL | 69 | 250 | 3.62e+06
2 | unnamed (protein) MRPPWYPLHTPSLAFPLLFLLLSLLGGGARAEGREDPQLLVRVRGGQLRGIRLKAPGGPVSAFLGIPFAEPPVGSRRFMPPEPKRPWSGVLDATTFQNVCYQYVDTLYPGFEGTEMWNPNRELSEDCLYLNVWTPYPRPASPTPVLIWIYGGGFYSGAASLDVYDGRFLAQVEGAVLVSMNYRVGTFGFLALPGSREAPGNVGLLDQRLALQWVQENIAAFGGDPMSVTLFGESAGAASVGMHILSLPSRSLFHRAVLQSGTPNGPWATVSAGEARRRATLLARLVGCPPGGAGGNDTELIACLRTRPAQDLVDHEWHVLPQESIARFSFVPVVDGDFLSDTPEALINTGDFQDLQVLVGVVKDEGSAFLVYGVPGFSKDNESLISRAQFLAGVRIGVPQASDLAAEAVVLHYTDWLHPEDPTHLRDAMSAVVGDHNVVCPVAQLAGRLAAQGARVYAYIFEHRASTLTWPLWMGVPHGYEIEFIFGLPLDPSLNYTTEERIFAQRLMKYWTNFARTGDPNDPRDSKSPQWPPYTTAAQQYVSLNLKPLEVRRGLRAQTCAFWNRFLPKLLSATDTLDEAERQWKAEFHRWSSYMVHWKNQFDHYSKQERCSDL | 76 | 333 | 4.39e+06
3 | unnamed (protein) MRPPWYPLHTPSLAFPLLFLLLSLLGGGARAEGREDPQLLVRVRGGQLRGIRLKAPGGPVSAFLGIPFAEPPVGSRRFMPPEPKRPWSGVLDATTFQNVCYQYVDTLYPGFEGTEMWNPNRELSEDCLYLNVWTPYPRPASPTPVLIWIYGGGFYSGAASLDVYDGRFLAQVEGAVLVSMNYRVGTFGFLALPGSREAPGNVGLLDQRLALQWVQENIAAFGGDPMSVTLFGESAGAASVGMHILSLPSRSLFHRAVLQSGTPNGPWATVSAGEARRRATLLARLVGCPPGGAGGNDTELIACLRTRPAQDLVDHEWHVLPQESIFRFSFVPVVDGDFLSDTPEALINTGDFQDLQVLVGVVKDEGSAALVYGVPGFSKDNESLISRAQFLAGVRIGVPQASDLAAEAVVLHYTDWLHPEDPTHLRDAMSAVVGDHNVVCPVAQLAGRLAAQGARVYAYIFEHRASTLTWPLWMGVPHGYEIEFIFGLPLDPSLNYTTEERIFAQRLMKYWTNFARTGDPNDPRDSKSPQWPPYTTAAQQYVSLNLKPLEVRRGLRAQTCAFWNRFLPKLLSATDTLDEAERQWKAEFHRWSSYMVHWKNQFDHYSKQERCSDL | 150 | 650 | 4.33e+06
4 | unnamed (protein) MRPPWYPLHTPSLAFPLLFLLLSLLGGGARAEGREDPQLLVRVRGGQLRGIRLKAPGGPVSAFLGIPFAEPPVGSRRFMPPEPKRPWSGVLDATTFQNVCYQYVDTLYPGFEGTEMWNPNRELSEDCLYLNVWTPYPRPASPTPVLIWIYGGGFYSGAASLDVYDGRFLAQVEGAVLVSMNYRVGTFGFLALPGSREAPGNVGLLDQRLALQWVQENIAAFGGDPMSVTLFGESAGAASVGMHILSLPSRSLFHRAVLQSGTPNGPWATVSAGEARRRATLLARLVGCPPGGAGGNDTELIACLRTRPAQDLVDHEWHVLPQESILRFSFVPVVDGDFLSDTPEALINTGDFQDLQVLVGVVKDEGSAALVYGVPGFSKDNESLISRAQFLAGVRIGVPQASDLAAEAVVLHYTDWLHPEDPTHLRDAMSAVVGDHNVVCPVAQLAGRLAAQGARVYAYIFEHRASTLTWPLWMGVPHGYEIEFIFGLPLDPSLNYTTEERIFAQRLMKYWTNFARTGDPNDPRDSKSPQWPPYTTAAQQYVSLNLKPLEVRRGLRAQTCAFWNRFLPKLLSATDTLDEAERQWKAEFHRWSSYMVHWKNQFDHYSKQERCSDL | 150 | 283 | 1.89e+06
